Assay [1] deals with LAG-3 expressed on cells (species not stated at the experiment) (human) (UniProt P18627).
In assay [2] the target is LAG-3-huIgG1 Fc fusion protein. Nature of the assay: competition binding assay, LAG-3-Ig on Raji cells.

B1: murine anti-LAG-3 mAb BAP050 (antibody, V domains shown)
VH: QIQLVQSGPELKKPGETVKISCKASGFTLTNYGMNWVRQTPGKGLKWMGWINTDTGEPTYADDFKGRFAFSLETSASTASLQINNLKNADTATYFCARNPPYYYGTNNAEAMDYWGQGTAVTVSS
VL: DIQMTQTTSSLSASLGDRVTISCSSSQDISNYLNWYQQKPDGTVKVLIYYTSTLHLGVPSRFSGSGSGTDYSLTISNLELEDIATYYCQQYYNLPWTFGGGTKLEIK
In assay [1], B1 showed an IFN-γ expression, cells stimulated with CMV peptides (fold increase) of 1.4; an IFN-γ expression, cells stimulated with Staphylococcal enterotoxin B (SEB) (3 µg/mL) (fold increase) of 1.6; an IFN-γ expression, cells stimulated with anti-CD3 (0.1 µg/mL) (fold increase) of 3. Besides, the IC50 – broadly, the concentration that inhibits the measured activity by half – in assay [2] is 2.3 nM.

For the origin of these results see patent US20220153835A1.
